{
  "source": "patent US20220411536A1",
  "about": "(NUMAB THERAPEUTICS, published 2022)",
  "binders": {"B1": {"name": "PRO1434 (scFv, V domains shown)", "VH": "QVQLQESGPGLVKPSETLSLTCKVSGFSFSSGYDMCWIRQPPGKGLEWIGCVVAGSVDITYYASWAKGRVTISVDSSKNQFSLKLSSVTAADTAVYYCARKDAYSDAFNLWGQGTLVTVSS", "VL": "DIQMTQSPSSLSASVGDRVTITCQASQSINDYLAWYQQKPGKAPKLLIYKASTLASGVPSRFSGSGSGTDFTLTISSLQPEDFATYYCQAAYIITDIDNVFGTGTKVTVLG", "notes": "also called 33-03-G02 VL-Q108A/G109A"}, "B2": {"name": "PRO1543 (multispecific antibody)", "chain 1": "not shown", "chain 2": "DIQMTQSPSSLSASVGDRVTITCQASQSINDYLAWYQQKPGKAPKLLIYKASTLASGVPSRFSGSGSGTDFTLTISSLQPEDFATYYCQAAYIITDIDNVFGTGTKVTVLGGGGGSGGGGSGGGGSGGGGSQVQLQESGPGLVKPSETLSLTCKVSGFSFSSGYDMCWIRQPPGKGLEWIGCVVAGSVDITYYASWAKGRVTISVDSSKNQFSLKLSSVTAADTAVYYCARKDAYSDAFNLWGQGTLVTVSSGGGGSGGGGSEVQLVESGGGLVQPGGSLRLSCAASGFSLSSYDMSWVRQAPGKGLAWIGASYASGPTYYASWAKGRFTISRDNSKNTVYLQMNSLRAEDTATYFCARGGWTGTSHSNIWGQGTLVTVSSGGGSGGGSEVQLVESGGGLVQPGGSLRLSCAASGFSFSSSYWICWVRQAPGKCLEWVGCVFTGDGTTYYASWAKGRFTISRDNSKNTVYLQMNSLRAEDTATYFCARPVSVYYYGMDLWGQGTLVTVSS", "notes": "also called trastuzumab-based MATCH4"}},
  "key": {"[1]": {"molecular_target": "T1, Fc-tagged human PD-L1 extracellular domain (SinoBiological, cat. 10084-H02H) (human, UniProt Q9NZQ7 19-238)", "T1 construct": "extracellular domain; also called hPD-L1; not shown: Fc tag of the bought protein", "experiment": "SPR, captured Fc-PD-L1 ECD, scFv analyte, kinetic"}, "[2]": {"molecular_target": "T1, Fc-tagged human PD-L1 extracellular …", "experiment": "SPR, captured Fc-PD-L1 ECD, scFv analyte, steady state"}, "[3]": {"molecular_target": "T1, Fc-tagged human PD-L1 extracellular …", "experiment": "SPR"}, "[4]": {"molecular_target": "T2, human HER2 expressed on cells (SK-OV3, MCF-7, HCC1954, HCC827) (human, UniProt P04626 23-1255)", "T2 construct": "whole, on cells", "experiment": "flow cytometry, SK-OV3 cells"}, "[5]": {"molecular_target": "T3, human PD-L1 expressed on cells (CHO-PD-L1, HCC1954, HCC827) (human, UniProt Q9NZQ7 19-290)", "T3 construct": "whole, on cells; also called hPD-L1; PD-L1 expressing cells", "experiment": "flow cytometry, inhibition of biotinylated PD-1 binding to HCC1954 cells"}, "[6]": {"molecular_target": "T4, CD3e on Jurkat PD-1 NFAT reporter T cells or on T cells of human PBMCs (human, UniProt P07766 23-207)", "experiment": "cell-based or functional assay"}, "[7]": {"molecular_target": "T1, Fc-tagged human PD-L1 extracellular …", "experiment": "SPR, captured Fc-PD-L1 ECD, kinetic"}, "[8]": {"molecular_target": "T3, human PD-L1 expressed on cells …", "experiment": "flow cytometry, inhibition of biotinylated PD-1 binding to HCC827 cells"}, "[9]": {"molecular_target": "T2, human HER2 expressed on cells (SK-OV3, …)", "experiment": "flow cytometry, MCF-7 cells"}, "[10]": {"molecular_target": "T4, CD3e on Jurkat PD-1 NFAT reporter T …", "experiment": "cell-based or functional assay", "remark": "listed apart in the source"}, "human serum albumin": {"molecular_target": "T5, human serum albumin (human, UniProt P02768 25-609)", "T5 construct": "also called HSA; human SA", "experiment": "SPR, immobilised HSA, pH 5.5"}, "[11]": {"molecular_target": "T6, recombinant human CD3E ECD (SinoBiological, cat. 10977-H08H) (human, UniProt P07766 23-126)", "T6 construct": "extracellular domain; bought protein; also called CD3s", "experiment": "SPR, immobilised CD3e ECD, two-state model (ka1)"}, "[12]": {"molecular_target": "T2, human HER2 expressed on cells (SK-OV3, …)", "experiment": "flow cytometry, SK-OV3 cells, competitor 50 nM pertuzumab"}, "[13]": {"molecular_target": "T7, recombinant human IL-23R (custom-made by Trenzyme) (human, UniProt Q5VWK5 24-355)", "T7 sequence (looked up)": "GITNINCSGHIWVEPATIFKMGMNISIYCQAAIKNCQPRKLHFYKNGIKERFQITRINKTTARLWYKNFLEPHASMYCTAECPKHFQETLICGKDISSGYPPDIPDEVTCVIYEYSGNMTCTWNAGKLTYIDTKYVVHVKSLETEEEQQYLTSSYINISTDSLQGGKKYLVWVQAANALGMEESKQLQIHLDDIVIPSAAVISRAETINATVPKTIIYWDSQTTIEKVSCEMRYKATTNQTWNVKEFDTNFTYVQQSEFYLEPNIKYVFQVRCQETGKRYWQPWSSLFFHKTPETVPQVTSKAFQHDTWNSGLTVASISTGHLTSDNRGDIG", "experiment": "SPR, immobilised IL-23R"}, "[14]": {"molecular_target": "T2, human HER2 expressed on cells (SK-OV3, …)", "experiment": "flow cytometry, IFNy-stimulated HCC1954 cells"}, "[15]": {"molecular_target": "T4, CD3e on Jurkat PD-1 NFAT reporter T …", "experiment": "cell-based or functional assay", "remark": "listed apart in the source"}, "[16]": {"molecular_target": "T1, Fc-tagged human PD-L1 extracellular …", "experiment": "SPR, captured Fc-PD-L1 ECD, kinetic; kinetic analysis; the patent holds the steady state KD (3.47E-07 M) for the valid one"}, "[17]": {"molecular_target": "T8, recombinant human Her2 ECD (SinoBiological, cat. 10004-HCCH) (human, UniProt P04626 23-652)", "T8 construct": "extracellular domain; bought protein", "experiment": "SPR, immobilised Her2 ECD"}, "[18]": {"molecular_target": "T2, human HER2 expressed on cells (SK-OV3, …)", "experiment": "flow cytometry, IFNy-stimulated HCC827 cells"}, "[19]": {"molecular_target": "T2, human HER2 expressed on cells (SK-OV3, …)", "experiment": "flow cytometry, SK-OV3 cells, no competitor"}, "[20]": {"molecular_target": "T6, recombinant human CD3E ECD …", "experiment": "SPR, immobilised CD3e ECD, two-state model (kd1)"}, "mouse serum albumin": {"molecular_target": "T9, mouse serum albumin (mouse, UniProt P07724 25-608)", "T9 construct": "also called MSA; mouse SA", "experiment": "SPR, immobilised MSA, pH 5.5"}, "[21]": {"molecular_target": "T6, recombinant human CD3E ECD …", "experiment": "SPR, immobilised CD3e ECD, two-state model"}, "[22]": {"molecular_target": "T1, Fc-tagged human PD-L1 extracellular …", "experiment": "SPR, captured Fc-PD-L1 ECD, steady state"}},
  "data": [
    {"binder": "B1", "values": [
      {"measurement": "Kd", "setting": "[1]", "result": 492, "unit": "nM"},
      {"measurement": "koff", "setting": "[1]", "result": 0.535, "unit": "s⁻¹"},
      {"measurement": "kon", "setting": "[1]", "result": "1.09e+06", "unit": "M⁻¹ s⁻¹"},
      {"measurement": "Kd", "setting": "[2]", "result": 487, "unit": "nM"},
      {"measurement": "fold reduction of affinity vs PRO830", "setting": "[3]", "result": 6500, "unit": "fold"}
    ]},
    {"binder": "B2", "values": [
      {"measurement": "EC50", "setting": "[4]", "result": 3.32, "unit": "nM"},
      {"measurement": "IC50", "setting": "[5]", "result": 0.601, "unit": "µg/mL"},
      {"measurement": "target cell killing IC50, 16 h, HCC1954 cells", "setting": "[6]", "result": 0.00023, "unit": "nM"},
      {"measurement": "target cell killing IC50, 16 h, MCF-7 cells", "setting": "[6]", "result": 0.00311, "unit": "nM"},
      {"measurement": "koff", "setting": "[7]", "result": 0.000367, "unit": "s⁻¹"},
      {"measurement": "kon", "setting": "[7]", "result": 17600, "unit": "M⁻¹ s⁻¹"},
      {"measurement": "IC50", "setting": "[8]", "result": 59.2, "unit": "µg/mL"},
      {"measurement": "EC50", "setting": "[9]", "result": 28.6, "unit": "nM"},
      {"measurement": "IC50, NFAT reporter, CHO-PD-L1 (A2 clone) cells", "setting": "[10]", "result": 29.2, "unit": "nM"},
      {"measurement": "IC50, NFAT reporter, HCC1954 cells", "setting": "[10]", "result": 0.402, "unit": "nM"},
      {"measurement": "IC50, NFAT reporter, HCC1954 cells, + nivolumab", "setting": "[10]", "result": 0.125, "unit": "nM"},
      {"measurement": "rel. max. activation vs PRO1497, NFAT reporter, HCC1954 cells", "setting": "[10]", "result": 102, "unit": "%"},
      {"measurement": "rel. max. activation vs PRO1497 on HCC1954, NFAT reporter, CHO-PD-L1 (A2 clone) cells", "setting": "[10]", "result": 62, "unit": "%"},
      {"measurement": "Kd", "setting": "human serum albumin", "result": 0.81, "unit": "nM"},
      {"measurement": "koff", "setting": "human serum albumin", "result": 0.000118, "unit": "s⁻¹"},
      {"measurement": "kon", "setting": "human serum albumin", "result": 145000, "unit": "M⁻¹ s⁻¹"},
      {"measurement": "kon", "setting": "[11]", "result": 190000, "unit": "M⁻¹ s⁻¹"},
      {"measurement": "EC50", "setting": "[12]", "result": 4.16, "unit": "nM"},
      {"measurement": "binding result", "setting": "[13]", "result": "no binding (tested: 90 nM highest concentration)"},
      {"measurement": "EC50", "setting": "[14]", "result": 27.8, "unit": "nM"},
      {"measurement": "T cell activation IC50, PBMC with HCC827 cells", "setting": "[15]", "result": 0.136, "unit": "nM"},
      {"measurement": "T cell activation IC50, PBMC with HCC1954 cells", "setting": "[15]", "result": 0.049, "unit": "nM"},
      {"measurement": "Kd", "setting": "[16]", "result": 20.9, "unit": "nM"},
      {"measurement": "Kd", "setting": "[17]", "result": 0.406, "unit": "nM"},
      {"measurement": "koff", "setting": "[17]", "result": "6.26e-05", "unit": "s⁻¹"},
      {"measurement": "kon", "setting": "[17]", "result": 154000, "unit": "M⁻¹ s⁻¹"},
      {"measurement": "EC50", "setting": "[18]", "result": 3.9, "unit": "nM"},
      {"measurement": "EC50", "setting": "[19]", "result": 4.09, "unit": "nM"},
      {"measurement": "koff", "setting": "[20]", "result": 0.00542, "unit": "s⁻¹"},
      {"measurement": "Kd", "setting": "mouse serum albumin", "result": 19.5, "unit": "nM"},
      {"measurement": "koff", "setting": "mouse serum albumin", "result": 0.00117, "unit": "s⁻¹"},
      {"measurement": "kon", "setting": "mouse serum albumin", "result": 60200, "unit": "M⁻¹ s⁻¹"},
      {"measurement": "KD1", "setting": "[21]", "result": 28.5, "unit": "nM"},
      {"measurement": "Kd", "setting": "[21]", "result": 15.7, "unit": "nM"},
      {"measurement": "kd2", "setting": "[21]", "result": 0.00503, "unit": "s⁻¹"},
      {"measurement": "Kd", "setting": "[22]", "result": 347, "unit": "nM"}
    ]}
  ]
}
